Reference: patent publication US20250269018A1, “COMBINED CANCER THERAPY WITH AN EPITHELIAL CELL ADHESION MOLECULE (EPCAM) INHIBITOR AND A HEPATOCYTE GROWTH FACTOR RECEPTOR (HGFR) INHIBITOR” (ACADEMIA SINICA, priority 2021, published 2025)
Entries after “also recorded” stand apart in the source; their conditions may differ.

T1: EpCAM (Homo sapiens, UniProt P16422)
T1 sequence (P16422 24-314): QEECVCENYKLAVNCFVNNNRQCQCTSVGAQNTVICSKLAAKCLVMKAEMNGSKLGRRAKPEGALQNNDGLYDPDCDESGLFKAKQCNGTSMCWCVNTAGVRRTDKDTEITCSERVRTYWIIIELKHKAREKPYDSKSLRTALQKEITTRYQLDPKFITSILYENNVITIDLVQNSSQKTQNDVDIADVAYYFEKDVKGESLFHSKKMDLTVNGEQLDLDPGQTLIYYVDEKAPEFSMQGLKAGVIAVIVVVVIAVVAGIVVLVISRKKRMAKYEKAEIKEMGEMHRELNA


Experiments:
HCT116 cells = test: Apoptosis assay, annexin V-FITC/PI double labeling, HCT116; format: cell-based, human; details: 10 μg/ml 24 h, FIG. 7C
HT29 cells = test: Apoptosis assay, annexin V-FITC/PI double labeling, HT29; format: cell-based, human; details: 10 μg/ml 24 h, FIG. 7C
Description: (§1) FIGS. 7A to 7G. EpAb2-6 binds EpEX and induces apoptosis by F(ab′)2 and inhibits regulated intramembrane proteolysis (RIP) activation and HGFR signaling. (FIG. 7A) Binding affinity of IgG EpAb2-6 (mouse) and F(ab′)2 to EpEX-His (1 μg/ml) coated overnight was checked using ELISA (OD450). (FIG. 7B) HCT116 cells were treated with 100 μg/ml control IgG, Fc, or F(ab′)2 of EpAb2-6 for 24 h. The apoptotic and necrotic cells were quantified by fluorescein annexin V-FITC/PI double labeling. (FIG. 7C) HCT116 and HT29 cells were treated with 10 μg/ml control IgG, MT201, humanized EpAb2-6 (hEpAb2-6) or mouse hybridoma EbAb2-6 (mEpAb2-6) for 24 h. The apoptotic and necrotic cells were quantified by fluorescein annexin V-FITC/PI double labeling. (FIG. 7D) HCT116 cells were treated with 10 μg/ml control IgG, MT201, hEpAb2-6 or mEpAb2-6 for 16 h, followed by treatment with EpEX-His (50 nM) for 15 min. Levels of phosphorylated HGFR, AKT, and ERK, and (FIG. 7E) RIP proteins ADAM17 and presenilin 2 were examined by Western blotting. Anti-EpCAM antibody and crizotinib coordinately induces apoptosis in colon cancer cells. (FIG. 7F) HCT116 and HT29 cells were treated with 10 μg/ml NMIgG or EpAb2-6 and 4 μM HGFR inhibitor crizotinib for 24 h. The apoptotic and necrotic cells were quantified by fluorescein annexin V-FITC/PI double labeling. (FIG. 7G) HCT116 and HT29 cells were treated with 10 μg/ml NMIgG or EpAb2-6 and 10 μM HGFR inhibitor crizotinib. Cell invasion was assessed by a Transwell assay with matrigel after 24 h.
Cells were seeded and treated with 10 μg/ml mAb or inhibitor for 6 h; an unrelated mouse myeloma immunoglobulin used at appropriate dilution served as the IgG2a (Invitrogen #02-6200) isotype control. Apoptotic cells were detected using Annexin V-FITC and PI, and were analyzed using a flow cytometer (BD Immmunocytometry Systems). Early apoptosis was measured with the Annexin V-FITC Apoptosis Detection kit II (BD Pharmingen). Late apoptotic nuclei were detected with propidium iodide (PI) staining.

ADAM17 and presenilin 2 = test: Western blotting of RIP proteins ADAM17 and presenilin 2 in HCT116 cells; format: cell-based, human; details: 10 μg/ml 16 h, then EpEX-His 50 nM 15 min, FIG. 7E
Description: as §1, with “(FIG. 7G) HCT116 and HT29 cells were treated with 10 μg/ml NMIgG or EpAb2-6 and 10 μM HGFR inhibitor crizotinib.” left out
Whole cell extracts were prepared with RIPA buffer (50 mM Tris-HCl pH7.4, 1% NP-40, 0.5% Sodium deoxycholate, 0.1% SDS, 150 mM NaCl, 2 mM EDTA, 50 mM NaF). Protein concentrations of the cell lysates were determined by the Bradford assay. […]
Appropriate horseradish peroxidase-associated secondary antibodies (Millipore) were applied and the membranes were incubated at room temperature (RT) for 1 h. The protein bands were subsequently visualized with chemiluminescence reagents (Millipore) and detected on a BioSpectrum 600 Imaging system (UVP). The protein level was quantified from band intensity using Gel-Pro analyzer 3.1 (Media Cybernetics).

EpCAM [1] = test: Antibody binding to EpCAM wild-type and mutants expressed in HEK293T cells (immunofluorescence, flow cytometry, cellular ELISA); set-up: species or system human; details: HEK293T; immunofluorescence, flow cytometry, cellular ELISA; FIG. 8E-8G
Description: FIGS. 8A to 8G. EpAb2-6 binds to both EGF-like domain I and II of EpCAM. HEK293T cells were transfected with full length or EGF like-domain deletion mutant EpCAM-V5. Antibody binding was assessed by (FIG. 8A) Western blotting, (FIG. 8B) flow cytometry, and (FIG. 8C) immunofluorescence. (FIG. 8D) EpCAM mutants were constructed with amino acid substitutions in the EGF-I (Y32A) and EGF-II (L94A, Y95A, or D96A) domains. EpCAM wild-type and mutant proteins were expressed in HEK293T cells. Binding of MT201, EpAb2-6 and EpAb23-1 to EpCAM wild-type and mutants were evaluated by (FIG. 8E) immunofluorescence, (FIG. 8F) flow cytometry, and (FIG. 8G) cellular ELISA.
A previous study identified the binding epitope of EpAb2-6 antibody as the LYD motif in EpCAM, which corresponds to amino acid residues 94-96; in particular, residue 95 (Y95) plays a major role in EpAb2-6 binding (Liao et al., 2015). […] Therefore, we wanted to determine whether the antibody binds to EpCAM at both EGF-like domains of EpEX (FIG. 8A, FIG. 8B, FIG. 8C). To confirm that EpAb2-6 recognizes the LYD motif in EpCAM, we constructed cDNA sequences encoding the first (aa 27-59; EGF-I domain) and second (aa 66-135; EGF-II/TY domain) EGF-like repeats of EpCAM. PCR-based site-directed mutagenesis was then used to introduce mutations into each domain (FIG. 8D). The reactivity of EpAb2-6 antibody toward these EpCAM mutants was evaluated by immunofluorescence (FIG. 8E), flow cytometry (FIG. 8F), and cellular ELISA (FIG. 8G).

EpCAM [2] = molecular target: T1, EpCAM; details: cited from earlier work
HCT116-Luc cells = test: Orthotopic animal model, HCT116-Luc; details: EpAb2-6 15 mg/kg, crizotinib 20 mg/kg, FIG. 9D, 9E
Description: (FIG. 9C) Timeline of the experiment to evaluate EpAb2-6 and/or crizotinib in the in orthotopic animal models. (FIG. 9D) NOD/SCID mice received orthotopic implantation of HCT116-Luc cells and then were treated with control IgG (normal mouse IgG, NMIgG), crizotinib, EpAb2-6, or crizotinib combined with EpAb2-6 starting at 3 days after tumor inoculation (n=5). Tumor growth was monitored by examining bioluminescence with the IVIS 200 Imaging System. (FIG. 9E) HCT116-Luc tumor cells monitored by bioluminescence quantification. […] (FIG. 9H) NOD/SCID mice were orthotopically implanted with HT29-Luc cells and then treated with control IgG, crizotinib, EpAb2-6, or crizotinib combined with EpAb2-6 starting at 3 days after tumor inoculation (n=5). Tumor growth was monitored by examining bioluminescence with an IVIS 200 Imaging System. (FIG. 9I) HT29-Luc tumor cells monitored by bioluminescence quantification.
Orthotopic tumor models were created as previously reported (Chen et al., 2020). Briefly, NSCID mice were used for orthotopic implantation of HCT116 cells previously infected with Lenti-luc virus (lentivirus containing luciferase gene). […] Tumor development was monitored by bioluminescence imaging. […] Tumor progression was monitored by quantification of bioluminescence. Mouse survival was also monitored.

Molecule | apoptosis (HCT116 cells) | apoptosis (HT29 cells) | levels of phosphorylated ADAM17 and presenilin 2 (ADAM17 and presenilin 2) | antibody binding to EpCAM with mutations at Y32 (EGF-I domain) or Y95 (EGF-II domain) (EpCAM [1]) | EpCAM domains bound (EpCAM [2]; other anti-EpCAM antibodies, comparison in the description) | binding epitope in EpCAM (EpCAM [2]; previous study (Liao et al., 2015)) | bioluminescence intensities (HCT116-Luc cells)
MT201: human anti-EpCAM antibody, adecatumumab (MT201) | did not show such effects | did not show such effects | no such effects | did not affect | target only the well-described EGF I domain of EpCAM; also recorded: binding to domain I only | – | –
EpAb2-6: anti-EpCAM neutralizing monoclonal antibody targeting EpEX; VH SEQ ID NO: 15, VL SEQ ID NO: 16 (antibody, listed as Homo sapiens, V domains shown) VH: VKLQESGPELKKPGETVKISCKASGYTFTDYSMHWVKQAPGKGLKWMGWINTETGEPTYADDFKGRFAFSLETSASTAYLQINNLKNEDTATYFCARTAVYWGQGTTVTVSS VL: DIQMTQSPSSLSASLGERVSLTCRASQEISVSLSWLQQEPDGTIKRLIYATSTLDSGVPKRFSGSRSGSDYSLTISSLESEDFVDYYCLQYASYPWTFGGGTKLEIKRADAAPTVS | inducing apoptosis | inducing apoptosis | decreased | marked reductions | – | LYD motif | significantly decreased compared to the control IgG or crizotinib alone groups
